Results taken from paper PMC4370635, “ARF6 Promotes the Formation of Rac1 and WAVE-Dependent Ventral F-Actin Rosettes in Breast Cancer Cells in Response to Epidermal Growth Factor” (PLoS ONE, 2015).

Target: T1, GST fused with the ARF6-binding domain (LZII, leucine zipper II domain) of human JIP3 (aa 371-507) (human, UniProt Q9UPT6 371-507)
T1 construct: JIP3, human, residues 371-507 (LZII, leucine zipper II domain); also called GST-LZII; LZII domain of human JIP3; source: pGEX construct, purified as described [35]; not shown: GST, N-terminal, kept
T1 sequence (looked up): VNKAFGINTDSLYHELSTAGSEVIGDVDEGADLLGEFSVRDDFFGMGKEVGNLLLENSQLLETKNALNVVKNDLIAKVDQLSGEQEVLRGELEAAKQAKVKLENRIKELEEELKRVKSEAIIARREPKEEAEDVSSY
Test: pull-down; GST-LZII (37 ug/reaction) incubated with cleared MDA-MB-231 cell lysates for 15 min at 4°C with 0.5% BSA, then glutathione-Sepharose beads for 1 h at 4°C; lysis buffer 50 mM Tris pH 7.4, 137 mM NaCl, 10 mM MgCl2, 10% glycerol, 1% Triton-X100; bound proteins immunoblotted with anti-ARF6 monoclonal antibody
Settings: one partner purified

fold increase in GTP-ARF6 pulled down, against parental MDA-MB-231 cells: ~4 fold
B1: ARF6T157N (natural protein, UniProt P62330 1-175, looked up)
chain: MGKVLSKIFGNKEMRILMLGLDAAGKTTILYKLKLGQSVTTIPTVGFNVETVTYKNVKFNVWDVGGQDKIRPLWRHYYTGTQGLIFVVDCADRDRIDEARQELHRIINDREMRDAIILIFANKQDLPDAMKPHEIQEKLGLTRIRDRNWYVQPSCANSGDGLYEGLTWLTSNYKS
notes: ADP-ribosylation factor 6 (ARF6), fast-cycling mutant T157N; also called fast-cycling mutant of ARF6; ARF6T15TN
